According to patent publication US20260159596A1 (SELECXINE, published 2026):

T1: DR3 expressed on the cell surface (DR3 stable cell line) (human, UniProt Q93038 25-417)
T1 construct: whole, on cells; also called DR3 natural form; human DR3
T1 sequence (looked up): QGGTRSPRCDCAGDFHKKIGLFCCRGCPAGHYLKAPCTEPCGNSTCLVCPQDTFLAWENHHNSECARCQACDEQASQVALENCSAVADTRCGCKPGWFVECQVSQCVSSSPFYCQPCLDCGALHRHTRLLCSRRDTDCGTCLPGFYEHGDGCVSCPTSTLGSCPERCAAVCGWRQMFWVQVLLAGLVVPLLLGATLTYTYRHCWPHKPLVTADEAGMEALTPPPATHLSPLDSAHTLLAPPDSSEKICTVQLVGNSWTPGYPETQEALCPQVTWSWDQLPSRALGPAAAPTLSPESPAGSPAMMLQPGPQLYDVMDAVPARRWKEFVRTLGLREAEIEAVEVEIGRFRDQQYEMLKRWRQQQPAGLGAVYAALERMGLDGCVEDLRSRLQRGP

T2: TL1A (tumor necrosis factor-like ligand 1A), His tag (human, UniProt O95150 72-251)
T2 construct: also called TL1A His tag; TL1A-His tag; not shown: His tag
T2 sequence (looked up): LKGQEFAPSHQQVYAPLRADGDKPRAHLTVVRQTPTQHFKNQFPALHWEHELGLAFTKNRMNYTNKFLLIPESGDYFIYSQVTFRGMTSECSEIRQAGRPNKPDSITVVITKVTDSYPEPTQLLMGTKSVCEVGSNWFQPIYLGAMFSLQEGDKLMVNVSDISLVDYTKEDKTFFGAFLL

B1: recombinant DR3 (DR3-His tag) (receptor, human, UniProt Q93038 25-199, looked up)
chain: QGGTRSPRCDCAGDFHKKIGLFCCRGCPAGHYLKAPCTEPCGNSTCLVCPQDTFLAWENHHNSECARCQACDEQASQVALENCSAVADTRCGCKPGWFVECQVSQCVSSSPFYCQPCLDCGALHRHTRLLCSRRDTDCGTCLPGFYEHGDGCVSCPTSTLGSCPERCAAVCGWRQ
notes: it is treated as the same reagent; also called rDR3; death receptor 3; not shown: His tag

Experiments:
[1] = target: B1; experiment: SPR, Biacore T100, DR3-His tag immobilized on CM5 chip
Method: (§1) SPR was performed using monoclonal antibodies from the clones selected in Example 1. After immobilizing 10 μg/ml DR3-His tag on a CM5 chip, the binding specificity and binding strength were measured using Biacore T100 under the conditions of a contact time of 30 sec and a flow rate of […].

[2] = target: T1, DR3 expressed on the cell surface (DR3 …); experiment: FACS on DR3 stable cell line, 2 ug/ml antibody, anti-human IgG PE
Method: FACS was performed using monoclonal antibodies from the clones selected in Example 1. Specifically, a DR3 stable cell line at a concentration of 0.2×10⁶ was mixed with 2 μg/ml monoclonal antibody and incubated at 4° C. for 30 minutes, and the degree of binding between the DR3 stable cell line and the monoclonal antibody was confirmed by FACS analysis using anti-human IgG PE. For each step, cells were washed once with 200 μl of PBS. Isotype control was used as a negative control.

[3] = target: B1; experiment: ELISA, DR3-His tag on Ni plate, anti-human IgG Fc HRP
Method: The functionally best subclass of the anti-DR3 4-4 antibody identified as the best in Example 2 was analyzed. For this purpose, as anti-DR3 4-4 antibodies, clone 4-4 IgG1, clone 4-4 IgG2, and clone 4-4 IgG4 monoclonal antibodies were prepared according to IgG subclass, and ELISA was performed to compare the binding affinity to DR3. Specifically, 0.4 μg/ml DR3-His tag was put into and mixed with PBS, and then a Ni plate was coated with a total of 50 μl of the mixed solution. Thereafter, to prevent non-specific binding, the Ni plate was mixed with 200 μl of PBS consisting of 5% FBS and incubated at room temperature for 30 minutes, and incubated for 30 minutes by titrating the monoclonal antibody. The degree of binding between the coated DR3 and the monoclonal antibody was detected with anti-human IgG Fc HRP. The plate was washed five times with 250 μl of 0.1% Tween 20 at each step.

[4] = target: B1; experiment: phage ELISA of single scFv clones on recombinant DR3
[5] = target: T2, TL1A (tumor necrosis factor-like ligand …); experiment: SPR, Biacore T100, DR3-His tag immobilized on CM5 chip; TL1A as reference
Method: as §1

Binder	binding result [3]	binding result [4]	also measured
anti-DR3 4-4 monoclonal antibody (subclass not stated) (antibody, V domains shown, also called 4-4 mAb; clone 4-4) VH: EVQLVESGGGLVKPGGSLRLSCAASGFTFSDYYMSWIRQAPGKGLEWVSYISSSSSYTNYADSVKGRFTISRDNAKNSLYLQMNSLRAEDTAVYYCASNVDTAMVGAFDIWGQGTLVTVS VL: DIEMTQSPSSVSASVGDTVTITCRASQHISNWLAWYQQKPGQAPKFLIYTASNLQSGVPSRFSGSGYGTDFTLTISGLQPEDFATYYCQQADSFPLTFGGGTKVDIK	–	–	binding result [1]: binds; binding result [2]: binds
clone 4-4 IgG1 monoclonal antibody (antibody, V domains shown, IgG1 subclass; also called anti-DR3 4-4 IgG1 antibody) VH: EVQLVESGGGLVKPGGSLRLSCAASGFTFSDYYMSWIRQAPGKGLEWVSYISSSSSYTNYADSVKGRFTISRDNAKNSLYLQMNSLRAEDTAVYYCASNVDTAMVGAFDIWGQGTLVTVS VL: DIEMTQSPSSVSASVGDTVTITCRASQHISNWLAWYQQKPGQAPKFLIYTASNLQSGVPSRFSGSGYGTDFTLTISGLQPEDFATYYCQQADSFPLTFGGGTKVDIK	binds	–	–
anti-DR3 scFv clone 4-4 (phage display) (scFv, V domains shown) VH: EVQLVESGGGLVKPGGSLRLSCAASGFTFSDYYMSWIRQAPGKGLEWVSYISSSSSYTNYADSVKGRFTISRDNAKNSLYLQMNSLRAEDTAVYYCASNVDTAMVGAFDIWGQGTLVTVS VL: DIEMTQSPSSVSASVGDTVTITCRASQHISNWLAWYQQKPGQAPKFLIYTASNLQSGVPSRFSGSGYGTDFTLTISGLQPEDFATYYCQQADSFPLTFGGGTKVDIK	–	binds	–
clone 4-4 IgG2 monoclonal antibody (antibody, V domains shown, IgG2 subclass) VH: EVQLVESGGGLVKPGGSLRLSCAASGFTFSDYYMSWIRQAPGKGLEWVSYISSSSSYTNYADSVKGRFTISRDNAKNSLYLQMNSLRAEDTAVYYCASNVDTAMVGAFDIWGQGTLVTVS VL: DIEMTQSPSSVSASVGDTVTITCRASQHISNWLAWYQQKPGQAPKFLIYTASNLQSGVPSRFSGSGYGTDFTLTISGLQPEDFATYYCQQADSFPLTFGGGTKVDIK	binds	–	–
anti-DR3 3-18 monoclonal antibody (antibody, V domains shown, Human IgG; also called 3-18 mAb; clone 3-18) VH: QVQLQQSGPGLVKPSETLSLTCTVSGGSISSSSYYWGWIRQPPGKGLEWIGSIYYSGSTYYNPSLKSRVTISVDTSKNQFSLKLSSVTAADTAVYYCARQVSGPLDYWGQGTLVTVS VL: DIVMTQSPSSLSASVGDRVTITCRASQGIRNDLGWYQQKPGKAPKLLIYAASSLQSGVPSRFSGSGSGTDFTLTISSLQPEDFATYYCLQDYNYPRTFGQGTKVEIK	–	–	binding result [1]: binds
anti-DR3 scFv clone 3-18 (phage display) (scFv, V domains shown) VH: QVQLQQSGPGLVKPSETLSLTCTVSGGSISSSSYYWGWIRQPPGKGLEWIGSIYYSGSTYYNPSLKSRVTISVDTSKNQFSLKLSSVTAADTAVYYCARQVSGPLDYWGQGTLVTVS VL: DIVMTQSPSSLSASVGDRVTITCRASQGIRNDLGWYQQKPGKAPKLLIYAASSLQSGVPSRFSGSGSGTDFTLTISSLQPEDFATYYCLQDYNYPRTFGQGTKVEIK	–	binds	–
B1	–	–	binding result [5]: binds
anti-DR3 4-4 IgG4 monoclonal antibody (antibody, V domains shown, also called clone 4-4 IgG4; human 4-4 IgG4P mAb) VH: EVQLVESGGGLVKPGGSLRLSCAASGFTFSDYYMSWIRQAPGKGLEWVSYISSSSSYTNYADSVKGRFTISRDNAKNSLYLQMNSLRAEDTAVYYCASNVDTAMVGAFDIWGQGTLVTVSS VL: DIEMTQSPSSVSASVGDTVTITCRASQHISNWLAWYQQKPGQAPKFLIYTASNLQSGVPSRFSGSGYGTDFTLTISGLQPEDFATYYCQQADSFPLTFGGGTKVDIKR	binds	–	–
anti-DR3 scFv clone 2-10 (phage display) (scFv, V domains shown) VH: QVQLVQSGAEVKKPGASVKVSCKASGYTFTSYGISWVRQAPGQGLEWMGWISAYNGNTNYAQKLQGRVTMTTDTSTSTAYMELRSLRSDDTAVYYCASGPDYGMLDYWGQGTLVTVS VL: EIVMTQSPSSLPASVGDRVTITCQASQDISNYLNWYQQKPGKAPKLLIYDASNLETGVPSRFSGSGSGTDFTFTISSPQPEDIATYYCQQYDNLPLTFGGGTKVEIK	–	binds	–
anti-DR3 2-10 monoclonal antibody (antibody, V domains shown, Human IgG (detected with anti-human IgG Fc); also called 2-10 mAb; clone 2-10) VH: QVQLVQSGAEVKKPGASVKVSCKASGYTFTSYGISWVRQAPGQGLEWMGWISAYNGNTNYAQKLQGRVTMTTDTSTSTAYMELRSLRSDDTAVYYCASGPDYGMLDYWGQGTLVTVS VL: EIVMTQSPSSLPASVGDRVTITCQASQDISNYLNWYQQKPGKAPKLLIYDASNLETGVPSRFSGSGSGTDFTFTISSPQPEDIATYYCQQYDNLPLTFGGGTKVEIK	–	–	binding result [1]: binds
anti-DR3 6-15 monoclonal antibody (antibody, V domains shown, Human IgG; also called 6-15 mAb; clone 6-15) VH: QVQLVQSGGGLVQPGGSLRLSCAASGFTFSSYSMNWVRQAPGKGLEWVSYISSSSSTIYYADSVKGRFTISRDNAKNSLYLQMNSLRAEDTAVYYCARWDGYCSGGSCYSGMDYWGQGTLVTVS VL: DIEMTQSPSSLSASVGDKVTITCQASQDISNYLNWYQQKPGKAPKLLIYDASNLETGVPSRFSGSGSGTDSTFTISSLQPEDIATYYCQQYDNLPLTFGGGTKVEIK	binds	–	binding result [2]: binds
anti-DR3 scFv clone 6-15 (phage display) (scFv, V domains shown) VH: QVQLVQSGGGLVQPGGSLRLSCAASGFTFSSYSMNWVRQAPGKGLEWVSYISSSSSTIYYADSVKGRFTISRDNAKNSLYLQMNSLRAEDTAVYYCARWDGYCSGGSCYSGMDYWGQGTLVTVS VL: DIEMTQSPSSLSASVGDKVTITCQASQDISNYLNWYQQKPGKAPKLLIYDASNLETGVPSRFSGSGSGTDSTFTISSLQPEDIATYYCQQYDNLPLTFGGGTKVEIK	–	binds	–
